Measured values taken from article PMC8837033.

Molecular target: Shp-2 (UniProt P35235)
Assay: anti-FLAG co-IP, Shp-2 immunoblot
Details: reference: wild type, 1 mM pervanadate; sites Y447,Y470

- binding against the reference: lost
Substance: Siglec-8 (from UniProt Q9NYZ4) Y447F+Y470F, 1 mM pervanadate
